Laboratory results reported in article PMC7491320, “Pdc2/Pat1 increases the range of decay factors and RNA bound by the Lsm1–7 complex” (RNA, 2019).

Columns and labels:
[1] = molecular target: the molecule itself; assay: AUC; sedimentation velocity, 9.3 µM PatMC/Lsm1–7 without RNA, 250 mM NaCl, 20 mM HEPES pH 7.0, 1 mM DTT, 22°C, 30,000 rpm, 10–12 h
[2] = molecular target: the molecule itself; assay: AUC; sedimentation velocity, 9.3 µM PatMC/Lsm1–7 with stoichiometric A15 RNA, 250 mM NaCl, 20 mM HEPES pH 7.0, 1 mM DTT, 22°C, 30,000 rpm, 10–12 h

B1: PatMC/Lsm1–7 complex (complex)
chain 1: LDEKRQKLERDHMLMAQCAGLMTRSDKSFIARIQISQLMSEDPESDDFYYRVYSIIRGRKPSEEEASHFIQTYLGPSNNRRRGRRSENPMQKLQQQLQRLVSSAKERPKATQLSLEGALGKIAVNTVRTPRQLLNVKRPTEPASSNSSLNNFSGFSTKKDVLHAIEKVYDLLLDFEQALRKASTLETTDQEQIDTWKTTLSEKLESIWKALYINESLEASSKTRPPFISIISHPKGMRLLPRLFPHLSKEQQISILKVVVYNFDSLDIVLRGTFDVNGELPLDVVSEMSSFTQFIIPPLLTIVNELDLETINNLFSQLLNRTNAVYLIQTKIGLSFLTLFISRAEILKQSGTVNQNEKEEWENTFNVMFNRVKGHFSTVFPPPNARAYADESYPWEFLAACATAASSEQHFTLVSETRDRVLDNIITSKRAPSEIAVVRISNVNLFLNAMGLDARQLSA
chain 2: MNQATQIIPFTTSGSLVDYVDRKVIVVLRDGKKLIGILRSFDQFANLMLQYTIERIYVDDMYGDIDRGVYIVRGENVVLLGELDLDKEYDAVKQLRRMPAEELYPLAKLHEEEKKKNIREKGKYLHSVGFSVDGGHDDLY
chain 3: MLFYSFFKTLIDTEVTVELKNDMSIRGILKSVDQFLNVKLENISVVDASKYPHMAAVKDLFIRGSVVRYVHMSSAYVDTILLADACRRDLANNKRQ
chain 4: not shown
chain 5: MLPLTLLNATQGRPILVELKNGETFNGHLENCDNYMNLTLREVIRTMPDGDKFFRLPECYIRGNNIKYLRIQDEVLSQVAKQQAQQRENRGSRFRGRGQRGRGNYGHTAPNRRGRGRGGHM
chain 6: not shown
chain 7: MDSSPNEFLNKVIGKKVLIRLSSGVDYKGILSCLDGYMNLALERTEEYVNGKKTNVYGDAFIRGNNVLYVSALDD
chain 8: MSSLQKRPGPGNSSQPTERPRKESILDLSRYQDQRIQATFTGGRQITGILKGFDQLMNLVLDDVEEQLRNPEDGKLTGAIRKLGLVVVRGTTLVLIAPMDGSEEIPNPFVQAE
notes: Pat1 (Pdc2) of S. pombe, middle and carboxy-terminal domains (PatMC), residues 296-754, codon optimized; Lsm1 of S. pombe, from a polycistron with all seven Lsm proteins; Lsm2 of S. pombe, from the polycistron; Lsm3 of S. pombe, from the polycistron; Lsm4 of S. pombe, from the polycistron; Lsm5 of S. pombe, from the polycistron; Lsm6 of S. pombe, from the polycistron; Lsm7 of S. pombe, from the …
B1 was tested, and the “stoichiometry N” value [1] was 2 and the “stoichiometry N” value [2] was 4.
